In PMC4597910:
Read-outs that look alike come from different tables or passages of the source.

Legend:
GB1-SRSF1 RRM1+2 [1] = molecular target: T1, GB1-SRSF1 RRM1+2 (UniProt Q07955 16-195); assay: NMR titration
GB1-SRSF1 RRM1+2 [2] = molecular target: T1, GB1-SRSF1 RRM1+2; assay: NMR titration; remark: listed apart in the source

T1 sequence (Q07955 16-195): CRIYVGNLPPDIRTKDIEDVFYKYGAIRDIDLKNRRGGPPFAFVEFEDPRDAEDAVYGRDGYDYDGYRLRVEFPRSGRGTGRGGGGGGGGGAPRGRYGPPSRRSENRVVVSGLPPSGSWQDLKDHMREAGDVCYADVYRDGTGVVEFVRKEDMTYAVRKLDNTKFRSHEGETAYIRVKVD

UCACUGGA (ssRNA) [UCACUGGA mutant]
binding result (GB1-SRSF1 RRM1+2 [1]): binds

UCAGAGGA (ssRNA) [WT UCAGAGGA]
binding result (GB1-SRSF1 RRM1+2 [2]): binds
